Measurements published in the domain aggregation screens of Martell et al. (2025).

Test: soluble fraction after stress (log2 fold change); higher = more stays soluble; pooled small domains, quantitative proteomics
Conditions: stress: 50 degC
Procedure, shortened: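 The stress applied to every library was 50°C. These custom libraries of small protein domains were pooled and measured at high throughput with quantitative proteomics as the read-out. Aggregation propensity is expressed as the base-two logarithm of the fold change in how much of each protein remains soluble. The higher the value, the more of that protein stays in solution.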

| Sequence | soluble fraction (log2) |
| --- | --- |
| HMSSKIKYSEFITMLDKGEVESVVLKSDTLTITLKHGTGVAAQTKTTTLMEDLSELTKRLEKAGIKDFDK | 0.0396 |
| HMRYQIAEARKLRDITQAELAEKMGTTQQTIQRYETNQVNIRMDKMIEMSEILNVSLAYLLGMSSSPEL | -0.901 |
| HMIESLKGILHKKDPTIAIIDVGGVRLSVNITLSTYEKLEEINSSIELLTYFNVREDAMELYG | -0.157 |
| HMRGYGDRIRILRERAGITIEQLAERLGVAPYFIRRTELSEVYPTKPYIEALADVLNIDASYLARHI | -1.81 |
| HMDFEEGAVKWFNTKKGYGFITRDQGDDIFVHFRNIKAQSRRSLTDGERVTFVVTEGDKGLQADHVSPV | -0.31 |
| HMQQIQILPDGKIKLPDLSGTNMREAIEILHKGGLRMKPYGSGNAYQQKPAAGETVASGTTVEVLSL | 0.0457 |
| HMSSLSGVRRTLLDSLGMPPDASDEELADRREELRGSLDTAPQARRKWIEQQLARIDAITALDASG | -0.035 |
| HMIMVAGHLQIKKGKYYMVLELKSESGERKTKWISTGLSAKGNKRKAEAMLEEARENYQSTDA | -0.899 |
| HMVAISNTSGLAGVAYWIQSNIPKGIDIRKDNPGIVTIKNWIDEEYRKGRTTTISEEEMFKLVREYMPEL | -1.77 |
| HMLDTPLTARELDVLYLMRQRMSAKEIAKQLGIATMTVNRHAANLYRKLGVNTRWDAVYRAEEVGILPP | -0.992 |
| HMNTELSPKVWDVVQEFILYRKEIKAPMTEHAVKLLIGQLQKLSSDPDEQIEILRQSIVNGWKGIFSLK | -0.183 |
| HMQSITAGDKVRVKNYTVSGGKKRGKVYGGAGTFVVYYEKYDVISVTGDRVVIGIGKAVTAAVHIDDLEK | -1.15 |
| HMSVGDLLENLIRETRAQFSAPPESLGVAEKRRFVALLSQKGGFLLKGAVSRAASVLGVSEQTVYRYLKDS | -0.218 |
| HMATVTVPNLKGMTPSGAESALAELNLKGAVGDSVESNDVENGKVASQDQAAGSDAKEGDTITYHLSS | 0.0967 |
| HMYFGNSLFQARKRSGLSQEGVAEKLGVSRQTVSKWETGETVPDIYQSKKMARLYGVSLDEL | 0.0951 |
| HMDPSHGESRENLDIMRIIDETHLEYPSWGYRKMTDHLRANHGYTINRKRVRRLMRLMDIIALFPG | -1.47 |
| HMSLTEDELFHALTIYANREGINIGATELKYLLTHYARNLGKLIELINQVSQAATMQKKPITIPLIKHS | -0.428 |
| HMTIPNGTVVNGTVLEAREAGAYLVRVAGQTLTAQANLPLLVGQHFRAVWDSSGDIPVLRLSDAEQALLGK | 0.119 |
| HMKEMTAKQIDMFSDKLSKLESFQSHYIADAGVSVTEYKQAIAAKLQDQFYVEAWGKYLADVGFT | -0.505 |
| HMNFGEVLQTKRKSMGLTQEDLADKLFVSSETISNWETNKTTPDIDNVIRISQLFDISLNNLLL | -0.0758 |
| HMVMRHTVEHDAELLAVLRLMYPASSSTKLRKMLTQGRVLVNDDVVHRAKHGVASGDTVDVIVRQRAE | -1.03 |
| HMDDPTVILFDPKNGQRKIVKWKAGLTLYSARRSAGISSAAEATIQRAGKSLSGRTATALEPGDVIRW | -0.953 |
| HMSTTYAPYLLGETEQEAIRMARNAGLDPQVVRQSDKSEAGTVILQSHDFGFAMKRGAVILITVSSGPLQ | -1.44 |
| HMPEVAHTIDMEAVNKHWDELPEREQRILVMRFYGNLTQTEIGERLGISQMHVSRLLARALSHLKSRLLD | -3.37 |
| HMKFTELEQLMLKREINTLADIARVLKTTPQAVSNWKARDQIPYHIVAKINASINKDSNDSSLSI | 0.00789 |
| HMAEPYDEDKVMEHLYIKGKDVVIAHLKHLKEHNEHVWLKKGVEWMQKNQDRLGFDMMEVIYVVHNH | -0.0166 |
| HMNVVINNELVSLMVEAMKDGVSSKSIQEEFEGYKISGKTITKKVLTAHVNKALEVFADMQE | -0.213 |
| HMEMELNHVARRAGRLSGFLKGELRLSTGLMNRLKWSNAILVNGKPARTNAQVEPGDRITVILD | -0.976 |

| Sequence | soluble fraction (log2) |
| --- | --- |
| HMNPNEVQIPDLVNKTEDEAEQILKDLKLKLVVKSEEYNENIEKGKIISQDPPYQENYTIKEHSEISIVIS | 0.42 |
| HMTLDEDYFYYTLKAKEGYYRLYKKLGVDRKIIDSLNPNLKEMGLQVGMVIRVPKSQTSDLSVKNSLLVE | -1.4 |
| HMQDLPPIHLSRGMTDYTLVRSRRRTLSMELKRDGTVVVHAPLRLGVEKIDAFVAAHEAWLARARTRQAER | -2.41 |
| HMIGEKLKEIREKTGMNKKEFAQYLGLKYTTYNNYETEAREPASDFLILISTKFDVSIDYLLGLQ | -0.674 |
| HMGYDDLEPFDANGRLRWSDQELVLAFGRHRGATLRTLELNDPSYLRWLLSGNGPLEQQDIQRLEQILES | -1.26 |
| HMLSVLKNVDVNSLSDDKIKTYWQQIQKSGYTLDEVEVLAEAQGISPLKIAAFKRRVQSLQQSLQT | 0.199 |
| HMGPNSVPDLRGKSLRQAMKMVNDLELKAIFEGEGIVVGQVPAPGKPVPETKILKITLSLEPY | -0.109 |
| HMEEAQWEFKWENTDSAEIHGPHSSSEMLKWQENSFFAKGVYVRKVGGDTTDFTDGKRIDFDLY | -0.822 |
| HMRGLVPEIVGTLEGEIRAGTLAVGQKLPTEAEIMARFDVSRTVVREALSRLQASDLVETRHGIGTFVSAR | -0.368 |
| HMEGDKEIPNVIGKSINDAKKILEQAGLKLGEVKKVNDSSVAKNVVLSTNPNAGTKVSAGDAVSITVAEG | 0.0251 |
| HMAEWLLVQLTNGNWFYGEVIEKTDATIVLNTDILGKVSIQKLDIRRSISGPLTAAKRQEIEDSERAKD | -0.0179 |
| HMQDREKNIAEGRDIIEHEFMRLGISLSRYDLDGLASKLNVKAGDDVLAGVGAGDIRVSQIISQLG | -0.00799 |
| HMRIWTPEMIKEYIISSNGKEPLNSHYYSTNHPSIYAAAERIFGSWGNAINAAGLDYNAIRKYK | -0.00482 |
| HMEKKSKLVLAVLQGSDSDNTIRNLNERGFMVTVLSSTGGFLKKKSTTVMIGVEEDRLEEALDVLQKYAG | -0.295 |
| HMTVPAGIVLSSIRQDGDVLHIRGTAQSTERLNFFRNSFSASWGSPAQNGKRKADPVTGLVDFTISLK | -0.677 |
| HMDSATDRVALKELLNTLSARERTIITLRYFSDQTQTQVAKSLGISQVQVSRLENAILQRLRKL | -1.94 |
| HMQTKSDMVYHRVREDIVNGVFAPGERLLISAVAKQYGVSEIPVREAFRVLSQEGFLKTRPNSGFVVS | 0.0933 |
| HMSQISKLWRPSEDVTEILTRSGMDSEFLEGLIPEFIIYWSERADVLVSYNSKFIEHARLKWAQHSAEIKT | -2.63 |
| HMPELPPHELLRALMVEHDIKQSELPEVGPQPVVSDVLAGKRALNLRQVAALAARFHVPMEVFT | -0.153 |
| HMAGGNHPTRLELLDSAAHIAERDGTSALTVDAITKSAGHAKGTFYIHFDDRADLLVEMHRR | -0.183 |
| HMRLNIRTKNNYSYYTIIKDYTNLNGKRTTTIFEKLGNQQQVEERFGKVNTIENIKKYIEELNNE | -1.23 |
| HMDSVFGVVTSSDGVKLRKEASTISKVLTVLPYGTEVDVDRIGSEWIRIVTDGGQKGYVSADYLAVREGER | 0.206 |
| HMSLIHEQSLKEIRIFINNLPESLRTAFTLREQDGLSYEEISKITDTPIGTVRSRIFRARESILEHINEEL | -1.89 |
| HMISDQENDLNLKHLFDTADQNKDGLILESELKMLMTNLEINKETYDTVMKQITPAGMDYKTFSSL | 0.0963 |
| HMTIGKIVNIIEGSYANVRSAPDQNSEPIGRAYPGDAFLVDPLGSSGDWVKVTYEGQSGFIFQAYISV | -1.29 |
| HMTDFSDLSFKYNSEEKDVLNSINLKINGGEMTSLVGHSGAGKTTILNLIPRFYEKSKGDISIDGQSIY | -0.0832 |
| HMEIPTPAELREKRIRMGLKQADVARMAGISQSMVARIESGSVDPRVSTLAKIVEVLQAAER | -0.175 |
